Article PMC7744796, “Prolyl isomerization controls activation kinetics of a cyclic nucleotide-gated ion channel” (Nature Communications, 2020)
Where “and” joins values, the source holds several entries; their conditions need not be identical. Equal values may be shown once.

How the values were obtained:
WT SthK = assay: Stopped-flow Tl+ flux assay, WT SthK in proteo-liposomes; assay type: biochemical, Spirochaeta thermophila; design: key to averaged rate: normalized Tl+ influx rate at 2 ms (unitless, relative)
Description: (§1) In all cyclic nucleotide-gated channels the connection between the C-linker and the CNBD is formed by a helix-loop-helix motif called the siphon. […] This proline had not been previously implicated in prolyl isomerization in HCN channels or SthK. Due to steric restrictions and the lack of an amide-proton, prolines are only rarely found at the C-termini of α-helices[20],[21]. To test whether this unusual proline (Pro300, Fig. 1a, b) plays a role in channel activation, we employed a fluorescence-based stopped-flow assay to measure activation kinetics of a SthK mutant where the proline was substituted by an alanine.
(§2) All stopped-flow experiments were performed at 25 °C using a SX.20 sequential mixing fluorescence spectrophotometer (Applied Photophysics, Leatherhead, UK) controlled using ProDataSX as described before. In order to prepare liposomes for the Tl^+ flux assays 15 mg of DOPC:POPG:Cardiolipin (5:3:2, w/w/w) in chloroform were dried to a thin film in glass tubes under constant N2 flow and further dried under vacuum overnight. […] The sample was incubated at 21 °C under constant agitation for 3 h, the supernatant was transferred to a new glass tube and stored at 13 °C overnight. […] The liposome solution was diluted 5-times in sample buffer right before the experiments to ensure a good signal-to-noise ratio.
(§3) For the time course of activation in the presence of PPIases 2 µM of enzyme were added to the liposome solution and incubated for at least 10 min before the experiment yielding 1 µM of enzyme in the aging loop (after the first mixing event).
(§4) During one experiment, at least seven technical repeats were performed for each data point, every repeat was visually inspected for its quality, mixing artifacts were sorted out and the remaining repeats (typically 6–7 technical repeats) were analyzed separately in Matlab using a stretched exponential function (Eq. (2)) and the rate of Tl^+ influx into liposomes was calculated at 2 ms according to Eq. (3). 5000 data points were recorded over 1 s, however, to obtain the initial rate of Tl^+ influx only the first 100 ms were analyzed. The use of a stretched exponential function is necessary since the sizes of the liposomes vary and different amounts of channel proteins can be incorporated in different liposomes.2 Ft=F∞+F0−F∞⋅e^−t/τ^β 3 kt=β/τ⋅0.002s/τ^β−1 with Ft, F∞, F0 being the fluorescence at time t, the final fluorescence and the initial fluorescence, respectively. t is the time (in s), τ the time constant (in s) and β the stretched exponential factor. kt is the calculated rate (in s^−1) of Tl^+ influx at 2 ms.
(§5) The calculated rates kt were then averaged and the standard deviation (S.D.) was determined. Each experiment was independently repeated at least three times, the obtained rate constants were normalized, averaged and the S.D. was determined.
(§6) All further analysis was performed in GraFit. For the time course of channel activation, the rates were plotted as a function of the delay time in the first mixing step and fitted according to a double exponential.

SthK P300A = assay: Stopped-flow Tl+ flux assay, SthK P300A in proteo-liposomes; assay type: biochemical, Spirochaeta thermophila; conditions: SthK P300A + SlyD; for averaged rate: mean of normalized rates; for normalized rate: single replicates
Description: as §1, §2, §3, §4, §5, §6

Abz-Ala-Leu-Pro-Phe-pNA = assay: Peptide-based isomerization assay, PPIase activity, Leu substrate; assay type: biochemical
Description: (§7) To determine the activity of PPIases, peptides with either Leu or Glu preceding the Pro were used. Buffer and the desired concentration of PPIase were mixed in a QS quartz cuvette (Hellma Analytics) and incubated for 2 min under constant stirring. Peptide was added and the fluorescence increase was monitored.

Abz-Ala-Glu-Pro-Phe-pNA = assay: Peptide-based isomerization assay, PPIase activity, Glu substrate; assay type: biochemical
Description: as §7

[1] = 1 µM PPIase, 100 µM cAMP, delay time 0.012 s
[2] = 1 µM PPIase, 100 µM cAMP, delay time 0.050 s
[3] = 1 µM PPIase, 100 µM cAMP, delay time 0.100 s
[4] = 1 µM PPIase, 100 µM cAMP, delay time 0.500 s
[5] = 1 µM PPIase, 100 µM cAMP, delay time 1.000 s
[6] = 1 µM PPIase, 100 µM cAMP, delay time 2.500 s
[7] = 1 µM PPIase, 100 µM cAMP, delay time 5.000 s
[8] = 1 µM PPIase, 100 µM cAMP, delay time 10.000 s
[9] = [PPIase] 10 pM, 12 ms with 100 µM cAMP
[10] = [PPIase] 100 pM, 12 ms with 100 µM cAMP
[11] = [PPIase] 1e-8 M, 12 ms with 100 µM cAMP
[12] = [PPIase] 1e-7 M, 12 ms with 100 µM cAMP
[13] = [PPIase] 1e-6 M, 12 ms with 100 µM cAMP
[14] = [PPIase] 1e-5 M, 12 ms with 100 µM cAMP

B1: SlyD: bacterial FKBP-type isomerase (UniProt P0A9K9, residues 1–165) (protein, UniProt P0A9K9 1-165, looked up, fragment)
chain: MKVAKDLVVSLAYQVRTEDGVLVDESPVSAPLDYLHGHGSLISGLETALEGHEVGDKFDVAVGANDAYGQYDENLVQRVPKDVFMGVDELQVGMRFLAETDQGPVPVEITAVEDDHVVVDGNHMLAGQNLKFNVEVVAIREATEEELAHGHVHGAHDHHHDHDHD
averaged rate (WT SthK; [1]): 1.130 | normalized rate (WT SthK; [1]): 0.993 and 1.357 and 1.239 and 1.025 and 1.202 and 0.960 | averaged rate (WT SthK; [2]): 1.035 | normalized rate (WT SthK; [2]): 1.008 and 0.974 and 1.215 and 1.144 and 1.115 and 0.926 and 0.860 | averaged rate (WT SthK; [3]): 0.965 | normalized rate (WT SthK; [3]): 0.986 and 0.930 and 0.972 and 1.038 and 1.181 and 0.964 and 0.683 | normalized rate (WT SthK; 1 µM PPIase, 100 µM cAMP, delay time 0.250 s): 0.815 and 0.934 and 1.134 and 1.296 and 1.074 and 0.872 | averaged rate (WT SthK; [4]): 0.978 | normalized rate (WT SthK; [4]): 0.911 and 0.879 and 0.973 and 1.305 and 0.757 and 1.021 and 1.000 | averaged rate (WT SthK; [5]): 0.917 | normalized rate (WT SthK; [5]): 0.846 and 1.000 and 0.945 and 0.918 and 0.791 and 0.664 | averaged rate (WT SthK; [6]): 0.942 | normalized rate (WT SthK; [6]): 0.974 and 0.975 and 0.900 and 0.886 and 0.933 and 1.068 | averaged rate (WT SthK; [7]): 1.014 | normalized rate (WT SthK; [7]): 0.948 and 0.912 and 0.942 and 1.000 and 1.421 and 0.879 | averaged rate (WT SthK; [8]): 0.922 | normalized rate (WT SthK; [8]): 1.000 and 0.963 and 0.916 and 0.966 and 0.900 and 0.827 and 0.883 | effect on SthK activation (slow activation phase) (WT SthK; 1 µM protein, 100 µM cAMP): abolished | EC50 (WT SthK; PPIase concentration dependence of normalized Tl+ flux rate, 12 ms incubation with 100 µM cAMP): ~30 nM | averaged rate (WT SthK; [9]): 0.622 | normalized rate (WT SthK; [9]): 0.592 and 0.562 and 0.636 and 0.697 | averaged rate (WT SthK; [10]): 0.685 | normalized rate (WT SthK; [10]): 0.710 and 0.760 and 0.585 | normalized rate (WT SthK; [PPIase] 1e-9 M, 12 ms with 100 µM cAMP): 0.755 and 0.566 and 0.775 and 0.750 | averaged rate (WT SthK; [11]): 0.814 | normalized rate (WT SthK; [11]): 0.965 and 0.565 and 0.822 and 0.905 | averaged rate (WT SthK; [12]): 0.961 | normalized rate (WT SthK; [12]): 1.083 and 0.844 and 0.962 and 0.956 | averaged rate (WT SthK; [13]): 0.999 | normalized rate (WT SthK; [13]): 1.000 and 0.992 and 1.006 | averaged rate (WT SthK; [14]): 1.000 | normalized rate (WT SthK; [14]): 1.000 | averaged rate (SthK P300A; delay time 0.010 s): 1.007 | normalized rate (SthK P300A; delay time 0.010 s): 1.011 and 0.947 | averaged rate (SthK P300A; delay time 0.025 s): 0.973 | normalized rate (SthK P300A; delay time 0.025 s): 0.800 | averaged rate (SthK P300A; delay time 0.050 s): 0.981 | normalized rate (SthK P300A; delay time 0.050 s): 0.892 and 1.105 | averaged rate (SthK P300A; delay time 0.100 s): 0.894 | normalized rate (SthK P300A; delay time 0.100 s): 1.000 and 0.795 and 0.887 | averaged rate (SthK P300A; delay time 0.250 s): 1.060 | normalized rate (SthK P300A; delay time 0.250 s): 1.026 and 1.272 and 0.881 | averaged rate (SthK P300A; delay time 0.500 s): 1.153 | normalized rate (SthK P300A; delay time 0.500 s): 1.146 and 1.160 | averaged rate (SthK P300A; delay time 1.000 s): 1.068 | normalized rate (SthK P300A; delay time 1.000 s): 1.172 | averaged rate (SthK P300A; delay time 2.500 s): 1.001 | normalized rate (SthK P300A; delay time 2.500 s): 1.067 and 1.000 | averaged rate (SthK P300A; delay time 5.000 s): 0.966 | normalized rate (SthK P300A; delay time 5.000 s): 1.000 and 0.922 | averaged rate (SthK P300A; delay time 10.000 s): 0.867 | normalized rate (SthK P300A; delay time 10.000 s): 0.930 and 0.866 and 0.804 | apparent rate (Abz-Ala-Leu-Pro-Phe-pNA; KCl, LPF substrate, 2 nM enzyme): 0.041 s⁻¹ and 0.044 s⁻¹ and 0.045 s⁻¹ | apparent rate (Abz-Ala-Leu-Pro-Phe-pNA; KCl, LPF substrate, 5 nM enzyme): 0.051 s⁻¹ and 0.061 s⁻¹ and 0.048 s⁻¹ | apparent rate (Abz-Ala-Leu-Pro-Phe-pNA; KCl, LPF substrate, 10 nM enzyme): 0.068 s⁻¹ and 0.054 s⁻¹ and 0.069 s⁻¹ | apparent rate (Abz-Ala-Leu-Pro-Phe-pNA; KCl, LPF substrate, 15 nM enzyme): 0.053 s⁻¹ and 0.072 s⁻¹ and 0.063 s⁻¹ | apparent rate (Abz-Ala-Leu-Pro-Phe-pNA; KNO3, LPF substrate, 2 nM enzyme): 0.049 s⁻¹ and 0.043 s⁻¹ and 0.048 s⁻¹ | apparent rate (Abz-Ala-Leu-Pro-Phe-pNA; KNO3, LPF substrate, 5 nM enzyme): 0.062 s⁻¹ and 0.056 s⁻¹ and 0.074 s⁻¹ | apparent rate (Abz-Ala-Leu-Pro-Phe-pNA; KNO3, LPF substrate, 10 nM enzyme): 0.072 s⁻¹ and 0.045 s⁻¹ | apparent rate (Abz-Ala-Leu-Pro-Phe-pNA; KNO3, LPF substrate, 15 nM enzyme): 0.062 s⁻¹ and 0.069 s⁻¹ and 0.077 s⁻¹ | apparent rate (Abz-Ala-Glu-Pro-Phe-pNA; KCl, EPF substrate, 2 nM enzyme): 0.026 s⁻¹ and 0.024 s⁻¹ | apparent rate (Abz-Ala-Glu-Pro-Phe-pNA; KCl, EPF substrate, 5 nM enzyme): 0.025 s⁻¹ and 0.026 s⁻¹ | apparent rate (Abz-Ala-Glu-Pro-Phe-pNA; KCl, EPF substrate, 10 nM enzyme): 0.024 s⁻¹ and 0.025 s⁻¹ | apparent rate (Abz-Ala-Glu-Pro-Phe-pNA; KCl, EPF substrate, 15 nM enzyme): 0.025 s⁻¹ and 0.024 s⁻¹ | apparent rate (Abz-Ala-Glu-Pro-Phe-pNA; KNO3, EPF substrate, 2 nM enzyme): 0.023 s⁻¹ and 0.027 s⁻¹ | apparent rate (Abz-Ala-Glu-Pro-Phe-pNA; KNO3, EPF substrate, 5 nM enzyme): 0.024 s⁻¹ and 0.029 s⁻¹ and 0.027 s⁻¹ | apparent rate (Abz-Ala-Glu-Pro-Phe-pNA; KNO3, EPF substrate, 10 nM enzyme): 0.028 s⁻¹ and 0.024 s⁻¹ and 0.026 s⁻¹ | apparent rate (Abz-Ala-Glu-Pro-Phe-pNA; KNO3, EPF substrate, 15 nM enzyme): 0.024 s⁻¹ and 0.027 s⁻¹
